This note sets out measurements from the RNAGym collection of RNA variant scans (doi:10.7554/elife.90254).

B1: LINE1-full (parent)
chain: UACGUAGGUGGUUUUCCCCUGAUAGUGCUAAGGGGGCCUGGAAGUUUGGACUGGGCAGAGCUCAACACAGCGUGGCAAAGUGGCUGUGGCUAGACUGCCUCUCUGGAUUCCUCGUCACUCAGCAGGGCAUCUCUGAGAGAAAUGCC

The data set covers variants of B1. In words: self-cleavage, relative activity (ratio to wild type); higher = more cleavage; in vitro, sequencing; the parent is a self-cleaving ribozyme.
As to U26A U91C, the self-cleavage came out at 0.32.
Turning to U29C C111A, the self-cleavage came to 1.24.
Regarding C28A G54A, the self-cleavage is 0.57.
As to G27A A140U, the self-cleavage was determined as 1.28.
The result for C28U A138G reads 1.01.
As to U29A U130C, the self-cleavage came out at 0.81.
With U26G U100C, the self-cleavage worked out at 1.22.
The result for C28U A43C reads 1.2; that for U26C A92U, 0.81.
As for U26G U119C, the self-cleavage turned out to be 0.98.
With U29A A121G, the self-cleavage worked out at 1.31.
The value for U26G A79G was 0.53.
With U26C C76U, the self-cleavage worked out at 1.87.
With C28A U102A, the self-cleavage stood at 1.12.
Take U29C G70U: the self-cleavage is 0.01.
Regarding C28G U134C, the self-cleavage came to 0.82.
As to U26G U47C, the self-cleavage came out at 1.16.
On to C28A A79U, for which the self-cleavage stood at 1.47.
On to U29C U108C, for which the self-cleavage turned out to be 1.27.
The result for U26C G144C reads 1.68.
Take U29A A69U: the self-cleavage was 0.07.
Regarding U29A A69G, the self-cleavage turned out to be 0.42.
U26A G144A: the self-cleavage was 1.03.
The value for U26A U52A was 0.81; that for G27A C111A was 1.16; that for C28U U102C was 0.15.
As to U29C A138G, the self-cleavage is 1.72.
As for C28G U45C, the self-cleavage was 1.09.
In the case of G27A U85C, the self-cleavage was found to be 0.13.
Take U29A U119C: the self-cleavage was 0.97.
With U29A U119G, the self-cleavage was 1.31.
As for U29C U47A, the self-cleavage is 1.11.
With U29C U47C, the self-cleavage is 1.85.
The result for C28U A57U reads 0.11; that for U29A A142G, 1.04.
For the variant U29A A142C, the self-cleavage worked out at 0.56.
For the variant U29A C110U, the self-cleavage turned out to be 1.07.
With U29C A78G, the self-cleavage was 1.17.
For U29C G60A, the self-cleavage was found to be 0.02.
Turning to U29A C101U, the self-cleavage came out at 1.71.
As to U26C A142G, the self-cleavage is 1.43.
As for U26C U91C, the self-cleavage was determined as 0.73.
For the variant U29G, the self-cleavage is 1.1.
Turning to U29A, the self-cleavage was found to be 1.23.
As for U29C, the self-cleavage amounted to 1.28.
Regarding U26C, the self-cleavage is 1.24.
Regarding U26G, the self-cleavage was determined as 0.99.
Take U29A G54A: the self-cleavage turned out to be 0.75.
The result for U29C U134C reads 1.37.
In the case of U29C U134A, the self-cleavage was determined as 0.89.
The result for U29C C145U reads 1.28; that for U29C A77U, 1.63; that for U29C A77C, 0.85.
As to G27C U112G, the self-cleavage came out at 1.11.
The value for U26C C95A was 0.1.
Regarding U26A G80U, the self-cleavage came to 1.21.
Take U26G C110U: the self-cleavage was found to be 1.75.
Consider U26G C111U, for which the self-cleavage is 0.63.
The value for U26C U119C was 1.77; that for U26C U46C was 1.71.
The value for U26C U46G was 1.62.
As to U26A G72U, the self-cleavage came to 0.77.
As for C28A A94G, the self-cleavage was determined as 0.
In the case of U26C U73C, the self-cleavage is 1.45.
U26C U73A: the self-cleavage was 1.48.
The value for U26C A43C was 1.63; that for U26C A43G was 1.43.
As to U29A U73C, the self-cleavage was determined as 1.63.
For U26A G126C, the self-cleavage amounted to 1.42.
In the case of G27A A65G, the self-cleavage is 0.05.
As for G27U U39C, the self-cleavage came out at 0.63.
As to U26A U96G, the self-cleavage was determined as 0.03.
The result for U26A G105U reads 0.57.
Consider U29A A141G, for which the self-cleavage stood at 1.15.
As to U26G G34A, the self-cleavage is 0.93.
On to U26C U132C, for which the self-cleavage came out at 1.62.
Regarding U29C G114A, the self-cleavage stood at 1.38.
Consider U29C G114C, for which the self-cleavage was determined as 1.49.
With U26C U109C, the self-cleavage was determined as 1.74.
As for U26A U102A, the self-cleavage amounted to 1.01.
The result for U26A U102G reads 0.38; that for U26C G72C, 0.
In the case of U26C U52C, the self-cleavage was 0.98.
Regarding U29C G44C, the self-cleavage worked out at 1.82.
For the variant C28U U119C, the self-cleavage came to 1.12.
In the case of G27U A67G, the self-cleavage turned out to be 0.28.
On to U26G U130A, for which the self-cleavage is 0.79.
In the case of U29C U73C, the self-cleavage turned out to be 1.3.
For U26C G54A, the self-cleavage is 0.6.
Regarding U29C U132C, the self-cleavage was 1.46.
The value for U29C U132A was 1.47.
Consider U26A U73A, for which the self-cleavage was found to be 1.24.
In the case of U26A U73C, the self-cleavage was found to be 1.15.
Turning to U26A U73G, the self-cleavage came to 1.18.
Consider U29A U81A, for which the self-cleavage stood at 1.96.
Regarding G27A G144A, the self-cleavage was determined as 1.08.
As for G27U C84A, the self-cleavage was found to be 0.1.
For U29C U119A, the self-cleavage came out at 1.21.
On to U29C U119C, for which the self-cleavage was found to be 1.45.
Take U26A U143C: the self-cleavage was 0.86.
The result for U26A U143A reads 2.23; that for U26C G35A, 1.26; that for G27A A59G, 0.13.
The result for G27A A129G reads 2.07.
Turning to U26C G105A, the self-cleavage was 1.32.
Turning to U26A U85C, the self-cleavage was found to be 0.17.
The result for U26A U85A reads 0.16; that for C28A G126A, 0.66.
With G27A U134A, the self-cleavage came to 0.87.
For the variant G27A U134C, the self-cleavage was found to be 1.58.
The value for U26C U143C was 1.07.
The value for U26C U143A was 1.44; that for U29C A59G was 0.16; that for U29C A59U was 1.13.
With U29C A69U, the self-cleavage worked out at 0.11.
Consider U29A U112C, for which the self-cleavage worked out at 0.43.
As for U29A A64G, the self-cleavage is 0.48.
For U29G A141U, the self-cleavage amounted to 0.35.
For the variant U29C G83A, the self-cleavage turned out to be 0.43.
Take U29C U45G: the self-cleavage was 0.79.
The value for U29C U45C was 1.08; that for G27A A142G was 1.15; that for U29C G55C was 0.
For U26C U104C, the self-cleavage stood at 0.84.
With U26C U104A, the self-cleavage amounted to 1.13.
Turning to U26C G89A, the self-cleavage is 0.03.
For U26C A31G, the self-cleavage came to 0.91.
As to U26C A31C, the self-cleavage amounted to 1.23.
The value for U26C U85C was 0.27.
In the case of U26C U85A, the self-cleavage came to 0.11.
Regarding G27A G88A, the self-cleavage was 0.04.
U26A G88A: the self-cleavage is 0.07.
Turning to U26C G34A, the self-cleavage is 1.03.
The result for C28A G32C reads 0.96; that for C28U U39C, 0.97.
Take U26C C38A: the self-cleavage amounted to 1.28.
Consider U29C A117G, for which the self-cleavage amounted to 0.44.
U29C G127A: the self-cleavage came to 0.64.
Regarding U29C G127C, the self-cleavage was determined as 1.58.
The result for U29C A50U reads 1.14; that for U26C G114U, 1.49; that for U26C A42G, 1.06.
In the case of G27A U46C, the self-cleavage was determined as 0.7.
The value for U29A G89U was 0.04; that for U29C A92G was 0.21.
For U29C G36A, the self-cleavage amounted to 1.63.
U29A U102C: the self-cleavage came to 1.2.
G27C A117G: the self-cleavage turned out to be 0.95.
As to U26C A30G, the self-cleavage was 1.05.
In the case of U26A U134C, the self-cleavage stood at 0.9.
Consider U26G A117U, for which the self-cleavage was found to be 1.3.
As for U26C G93C, the self-cleavage was determined as 0.17.
On to U26C G93A, for which the self-cleavage came out at 0.03.
On to U26G A124G, for which the self-cleavage amounted to 0.69.
The result for U26G U104C reads 0.81.
Turning to U26G G55A, the self-cleavage turned out to be 0.21.
As for C28U A64U, the self-cleavage worked out at 0.33.
In the case of C28U A64G, the self-cleavage stood at 0.16.
As for U29C A140G, the self-cleavage was 1.2.
The value for U29C A129G was 2.12; that for C28U C84U was 0.25; that for U26C G135A was 1.65.
The result for U26C A129G reads 1.41; that for C28U U45G, 1.09; that for U26A U87A, 0.01.
In the case of U26C A69C, the self-cleavage was determined as 0.08.
As to U29C A136U, the self-cleavage amounted to 1.54.
